Test results published in article PMC6349404, “Integrin alpha11 is an Osteolectin receptor and is required for the maintenance of adult skeletal bone mass” (eLife, 2019).

How the values were obtained:
Test in all cases: ELISA; microtiter well binding assay; plates coated with 10 nM recombinant human Osteolectin, Pro-Collagen 1α or BSA overnight at 4°C, blocked with 10 mg/ml BSA; 6xHis tagged integrins in TBS (50 mM Tris-Cl pH 7.5, 150 mM NaCl) with 1 mM MnCl2; bound integrin detected with anti-His tag antibody and HRP secondary, OD 450 nm
Conditions in all cases: both partners purified
[1] = biological target: T1, recombinant human integrin α4β1 (human, UniProt P13612 35-977; P05556 21-728)
T1 construct: integrin α4, human, chain of the recombinant heterodimer; integrin β1, human, chain of the recombinant heterodimer; source: bought: R and D Systems

[2] = biological target: recombinant human integrin αMβ2 (human, UniProt P11215 17-1104; P05107 23-700)
[3] = biological target: T2, recombinant human integrin α11β1 (human, UniProt Q9UKX5 23-1141; P05556 21-728)
T2 construct: integrin α11, human, chain of the recombinant heterodimer; integrin β1, human, chain of the recombinant heterodimer; also called α11β1 integrin; source: bought: R and D Systems

[4] = biological target: T3, recombinant human integrin α9β1 (human, UniProt Q13797 30-981; P05556 21-728)
T3 construct: integrin α9, human, chain of the recombinant heterodimer; integrin β1, human, chain of the recombinant heterodimer; source: bought: R and D Systems

[5] = biological target: T4, recombinant human integrin α10β1 (human, UniProt O75578 23-1122; P05556 21-728)
T4 construct: integrin α10, human, chain of the recombinant heterodimer; integrin β1, human, chain of the recombinant heterodimer; source: bought: R and D Systems
T4 sequence (O75578 23-1122, chain 1 of 2): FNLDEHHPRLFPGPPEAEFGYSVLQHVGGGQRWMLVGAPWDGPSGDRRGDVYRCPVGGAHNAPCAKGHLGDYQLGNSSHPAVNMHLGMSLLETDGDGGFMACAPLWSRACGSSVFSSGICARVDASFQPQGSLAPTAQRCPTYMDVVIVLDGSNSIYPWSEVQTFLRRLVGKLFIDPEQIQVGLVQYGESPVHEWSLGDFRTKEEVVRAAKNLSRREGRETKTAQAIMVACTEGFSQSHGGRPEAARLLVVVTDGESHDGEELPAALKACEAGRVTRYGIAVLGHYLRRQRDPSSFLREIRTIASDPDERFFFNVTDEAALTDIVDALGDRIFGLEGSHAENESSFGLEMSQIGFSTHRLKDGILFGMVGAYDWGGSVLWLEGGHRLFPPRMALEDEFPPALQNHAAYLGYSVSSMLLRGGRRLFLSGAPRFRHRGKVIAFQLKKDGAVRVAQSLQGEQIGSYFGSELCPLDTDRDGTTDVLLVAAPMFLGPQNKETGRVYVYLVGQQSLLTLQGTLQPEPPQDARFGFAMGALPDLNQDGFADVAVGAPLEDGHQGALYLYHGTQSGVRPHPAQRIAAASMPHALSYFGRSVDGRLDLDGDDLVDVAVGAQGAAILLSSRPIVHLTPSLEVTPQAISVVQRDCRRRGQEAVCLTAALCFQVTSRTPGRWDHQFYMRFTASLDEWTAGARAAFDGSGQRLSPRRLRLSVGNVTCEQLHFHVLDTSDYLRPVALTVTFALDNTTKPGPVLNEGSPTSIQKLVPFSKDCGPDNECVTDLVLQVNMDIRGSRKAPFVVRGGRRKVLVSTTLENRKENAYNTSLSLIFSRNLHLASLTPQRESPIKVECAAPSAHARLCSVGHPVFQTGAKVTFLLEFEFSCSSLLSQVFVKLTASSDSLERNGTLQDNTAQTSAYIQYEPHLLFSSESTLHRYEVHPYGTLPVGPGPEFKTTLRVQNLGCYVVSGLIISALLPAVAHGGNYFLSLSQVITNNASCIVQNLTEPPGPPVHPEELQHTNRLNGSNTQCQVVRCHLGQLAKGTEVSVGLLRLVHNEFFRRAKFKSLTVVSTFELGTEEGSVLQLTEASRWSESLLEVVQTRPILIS
T4 sequence (P05556 21-728, chain 2 of 2): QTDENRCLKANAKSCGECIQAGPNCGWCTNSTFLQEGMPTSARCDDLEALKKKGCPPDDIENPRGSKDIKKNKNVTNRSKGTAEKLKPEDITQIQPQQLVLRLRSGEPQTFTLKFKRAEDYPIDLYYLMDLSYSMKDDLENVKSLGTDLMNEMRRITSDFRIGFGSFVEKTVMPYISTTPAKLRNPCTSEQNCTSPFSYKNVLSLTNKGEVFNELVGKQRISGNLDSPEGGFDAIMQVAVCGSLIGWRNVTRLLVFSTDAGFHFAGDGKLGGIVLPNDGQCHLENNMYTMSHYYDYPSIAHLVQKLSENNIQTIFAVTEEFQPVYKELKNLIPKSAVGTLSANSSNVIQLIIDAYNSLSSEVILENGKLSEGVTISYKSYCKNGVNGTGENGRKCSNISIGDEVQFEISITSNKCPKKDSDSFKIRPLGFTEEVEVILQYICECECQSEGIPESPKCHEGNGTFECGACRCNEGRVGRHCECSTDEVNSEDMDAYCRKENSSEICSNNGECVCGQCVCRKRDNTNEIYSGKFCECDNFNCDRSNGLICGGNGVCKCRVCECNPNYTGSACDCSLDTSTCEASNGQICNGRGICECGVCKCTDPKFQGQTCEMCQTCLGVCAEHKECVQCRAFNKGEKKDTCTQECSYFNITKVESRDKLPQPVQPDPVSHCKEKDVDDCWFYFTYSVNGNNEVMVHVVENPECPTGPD

T1 sequence (P13612 35-977, chain 1 of 2): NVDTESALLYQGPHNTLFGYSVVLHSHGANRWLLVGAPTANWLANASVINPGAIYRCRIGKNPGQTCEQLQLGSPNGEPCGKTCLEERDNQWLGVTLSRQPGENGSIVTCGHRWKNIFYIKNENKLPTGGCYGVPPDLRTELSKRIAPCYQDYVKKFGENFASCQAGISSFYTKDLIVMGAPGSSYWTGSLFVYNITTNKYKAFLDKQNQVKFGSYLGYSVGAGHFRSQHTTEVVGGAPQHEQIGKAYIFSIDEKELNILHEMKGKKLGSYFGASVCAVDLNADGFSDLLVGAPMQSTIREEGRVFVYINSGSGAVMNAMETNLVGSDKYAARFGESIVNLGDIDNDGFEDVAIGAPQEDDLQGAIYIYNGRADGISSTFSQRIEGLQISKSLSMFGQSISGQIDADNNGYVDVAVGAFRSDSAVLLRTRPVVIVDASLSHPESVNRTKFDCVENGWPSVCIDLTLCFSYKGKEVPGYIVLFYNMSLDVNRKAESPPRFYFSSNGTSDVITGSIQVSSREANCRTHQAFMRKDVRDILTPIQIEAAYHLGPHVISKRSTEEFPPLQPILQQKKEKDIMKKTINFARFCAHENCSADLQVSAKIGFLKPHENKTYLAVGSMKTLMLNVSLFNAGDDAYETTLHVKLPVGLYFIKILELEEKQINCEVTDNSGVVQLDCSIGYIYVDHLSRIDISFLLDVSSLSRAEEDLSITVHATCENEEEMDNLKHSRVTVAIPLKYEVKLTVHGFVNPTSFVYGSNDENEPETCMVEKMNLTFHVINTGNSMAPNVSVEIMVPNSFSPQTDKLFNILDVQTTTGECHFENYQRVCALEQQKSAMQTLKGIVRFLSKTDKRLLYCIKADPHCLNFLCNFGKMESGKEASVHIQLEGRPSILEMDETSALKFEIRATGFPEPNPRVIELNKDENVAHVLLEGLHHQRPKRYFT
T1 sequence (P05556 21-728, chain 2 of 2): as the sequence (P05556 21-728, chain 2 of 2) above
T3 sequence (Q13797 30-981, chain 1 of 2): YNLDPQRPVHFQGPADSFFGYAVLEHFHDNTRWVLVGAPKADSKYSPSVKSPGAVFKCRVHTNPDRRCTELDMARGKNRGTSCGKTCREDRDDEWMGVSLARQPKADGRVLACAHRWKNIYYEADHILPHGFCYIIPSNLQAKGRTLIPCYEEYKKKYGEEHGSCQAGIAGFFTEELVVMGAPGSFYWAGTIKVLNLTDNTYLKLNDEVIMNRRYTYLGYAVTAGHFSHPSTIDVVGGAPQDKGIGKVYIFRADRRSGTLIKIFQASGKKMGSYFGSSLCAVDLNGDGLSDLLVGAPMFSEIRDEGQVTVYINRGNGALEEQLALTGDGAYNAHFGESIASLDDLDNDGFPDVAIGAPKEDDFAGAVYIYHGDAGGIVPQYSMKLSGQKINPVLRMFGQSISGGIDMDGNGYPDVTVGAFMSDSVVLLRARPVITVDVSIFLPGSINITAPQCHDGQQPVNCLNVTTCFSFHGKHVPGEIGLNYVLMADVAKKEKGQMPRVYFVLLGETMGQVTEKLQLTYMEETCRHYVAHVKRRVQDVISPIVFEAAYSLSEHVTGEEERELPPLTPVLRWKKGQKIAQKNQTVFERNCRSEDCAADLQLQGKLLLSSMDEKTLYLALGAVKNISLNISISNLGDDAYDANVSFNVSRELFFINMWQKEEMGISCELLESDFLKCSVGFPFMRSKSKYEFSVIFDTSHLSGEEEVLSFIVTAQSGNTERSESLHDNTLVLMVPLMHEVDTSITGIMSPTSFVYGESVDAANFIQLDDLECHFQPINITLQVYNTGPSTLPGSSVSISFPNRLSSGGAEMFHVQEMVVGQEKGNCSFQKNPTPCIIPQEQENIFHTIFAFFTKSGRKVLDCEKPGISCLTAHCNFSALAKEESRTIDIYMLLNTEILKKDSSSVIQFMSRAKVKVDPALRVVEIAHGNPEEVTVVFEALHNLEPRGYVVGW
T3 sequence (P05556 21-728, chain 2 of 2): as the sequence (P05556 21-728, chain 2 of 2) above
T2 sequence (Q9UKX5 23-1141, chain 1 of 2): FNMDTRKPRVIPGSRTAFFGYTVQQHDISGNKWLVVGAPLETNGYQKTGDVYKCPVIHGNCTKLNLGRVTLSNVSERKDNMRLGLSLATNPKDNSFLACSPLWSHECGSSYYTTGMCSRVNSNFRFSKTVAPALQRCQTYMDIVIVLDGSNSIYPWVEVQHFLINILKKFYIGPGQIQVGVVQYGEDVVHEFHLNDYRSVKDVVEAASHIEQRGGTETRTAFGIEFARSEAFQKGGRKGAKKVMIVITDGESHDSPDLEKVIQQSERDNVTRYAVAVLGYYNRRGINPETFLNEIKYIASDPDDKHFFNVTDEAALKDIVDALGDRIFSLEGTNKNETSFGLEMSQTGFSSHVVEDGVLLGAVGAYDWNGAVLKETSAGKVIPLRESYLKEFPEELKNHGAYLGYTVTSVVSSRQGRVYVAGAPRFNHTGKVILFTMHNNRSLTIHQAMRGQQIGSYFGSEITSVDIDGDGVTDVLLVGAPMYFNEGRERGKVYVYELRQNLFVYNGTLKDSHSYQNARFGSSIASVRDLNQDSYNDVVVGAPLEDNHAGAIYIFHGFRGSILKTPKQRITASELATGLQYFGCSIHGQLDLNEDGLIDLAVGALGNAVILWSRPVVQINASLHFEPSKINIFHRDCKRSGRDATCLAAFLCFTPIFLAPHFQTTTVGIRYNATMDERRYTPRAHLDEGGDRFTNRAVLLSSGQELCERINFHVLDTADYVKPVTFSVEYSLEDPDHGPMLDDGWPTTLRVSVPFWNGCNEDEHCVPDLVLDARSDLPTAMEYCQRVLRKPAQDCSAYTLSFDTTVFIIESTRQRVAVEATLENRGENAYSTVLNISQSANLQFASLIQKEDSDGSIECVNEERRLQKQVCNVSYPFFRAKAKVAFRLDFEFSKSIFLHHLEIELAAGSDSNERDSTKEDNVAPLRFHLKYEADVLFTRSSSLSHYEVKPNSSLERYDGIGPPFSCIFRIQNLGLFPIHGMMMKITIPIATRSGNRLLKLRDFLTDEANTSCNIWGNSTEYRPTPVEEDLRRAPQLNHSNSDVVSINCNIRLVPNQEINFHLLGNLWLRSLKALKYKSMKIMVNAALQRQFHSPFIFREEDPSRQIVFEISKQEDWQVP
T2 sequence (P05556 21-728, chain 2 of 2): as the sequence (P05556 21-728, chain 2 of 2) above

- Kd [1]: > 100 nM
- Kd [2]: > 100 nM
- Kd [3]: 0.3 nM
- Kd [4]: > 100 nM
- Kd [5]: 0.3 nM
B1: recombinant human Osteolectin (ligand, UniProt Q9Y240 22-323, looked up)
chain: ARGAEREWEGGWGGAQEEEREREALMLKHLQEALGLPAGRGDENPAGTVEGKEDWEMEEDQGEEEEEEATPTPSSGPSPSPTPEDIVTYILGRLAGLDAGLHQLHVRLHALDTRVVELTQGLRQLRNAAGDTRDAVQALQEAQGRAEREHGRLEGCLKGLRLGHKCFLLSRDFEAQAAAQARCTARGGSLAQPADRQQMEALTRYLRAALAPYNWPVWLGVHDRRAEGLYLFENGQRVSFFAWHRSPRPELGAQPSASPHPLSPDQPNGGTLENCVAQASDDGSWWDHDCQRRLYYVCEFPF
notes: Osteolectin/Clec11a, human; cDNA cloned into pcDNA3 with a C-terminal 1XFlag-tag; secreted into the culture medium; also called rhOln; Clec11a
